Test results published in patent US20130058934A1.
Numbering of substitutions follows the chain as printed. One block for each binder: values may come before it.

What was measured:
[1] = target: cynomolgus LRP6 (cynomolgus); assay: FACS on HEK293T/17 cells transiently transfected with cynomolgus LRP6
[2] = target: human LRP6 (human) (UniProt O75581)
Chain of human LRP6 (human) (O75581 20-1613): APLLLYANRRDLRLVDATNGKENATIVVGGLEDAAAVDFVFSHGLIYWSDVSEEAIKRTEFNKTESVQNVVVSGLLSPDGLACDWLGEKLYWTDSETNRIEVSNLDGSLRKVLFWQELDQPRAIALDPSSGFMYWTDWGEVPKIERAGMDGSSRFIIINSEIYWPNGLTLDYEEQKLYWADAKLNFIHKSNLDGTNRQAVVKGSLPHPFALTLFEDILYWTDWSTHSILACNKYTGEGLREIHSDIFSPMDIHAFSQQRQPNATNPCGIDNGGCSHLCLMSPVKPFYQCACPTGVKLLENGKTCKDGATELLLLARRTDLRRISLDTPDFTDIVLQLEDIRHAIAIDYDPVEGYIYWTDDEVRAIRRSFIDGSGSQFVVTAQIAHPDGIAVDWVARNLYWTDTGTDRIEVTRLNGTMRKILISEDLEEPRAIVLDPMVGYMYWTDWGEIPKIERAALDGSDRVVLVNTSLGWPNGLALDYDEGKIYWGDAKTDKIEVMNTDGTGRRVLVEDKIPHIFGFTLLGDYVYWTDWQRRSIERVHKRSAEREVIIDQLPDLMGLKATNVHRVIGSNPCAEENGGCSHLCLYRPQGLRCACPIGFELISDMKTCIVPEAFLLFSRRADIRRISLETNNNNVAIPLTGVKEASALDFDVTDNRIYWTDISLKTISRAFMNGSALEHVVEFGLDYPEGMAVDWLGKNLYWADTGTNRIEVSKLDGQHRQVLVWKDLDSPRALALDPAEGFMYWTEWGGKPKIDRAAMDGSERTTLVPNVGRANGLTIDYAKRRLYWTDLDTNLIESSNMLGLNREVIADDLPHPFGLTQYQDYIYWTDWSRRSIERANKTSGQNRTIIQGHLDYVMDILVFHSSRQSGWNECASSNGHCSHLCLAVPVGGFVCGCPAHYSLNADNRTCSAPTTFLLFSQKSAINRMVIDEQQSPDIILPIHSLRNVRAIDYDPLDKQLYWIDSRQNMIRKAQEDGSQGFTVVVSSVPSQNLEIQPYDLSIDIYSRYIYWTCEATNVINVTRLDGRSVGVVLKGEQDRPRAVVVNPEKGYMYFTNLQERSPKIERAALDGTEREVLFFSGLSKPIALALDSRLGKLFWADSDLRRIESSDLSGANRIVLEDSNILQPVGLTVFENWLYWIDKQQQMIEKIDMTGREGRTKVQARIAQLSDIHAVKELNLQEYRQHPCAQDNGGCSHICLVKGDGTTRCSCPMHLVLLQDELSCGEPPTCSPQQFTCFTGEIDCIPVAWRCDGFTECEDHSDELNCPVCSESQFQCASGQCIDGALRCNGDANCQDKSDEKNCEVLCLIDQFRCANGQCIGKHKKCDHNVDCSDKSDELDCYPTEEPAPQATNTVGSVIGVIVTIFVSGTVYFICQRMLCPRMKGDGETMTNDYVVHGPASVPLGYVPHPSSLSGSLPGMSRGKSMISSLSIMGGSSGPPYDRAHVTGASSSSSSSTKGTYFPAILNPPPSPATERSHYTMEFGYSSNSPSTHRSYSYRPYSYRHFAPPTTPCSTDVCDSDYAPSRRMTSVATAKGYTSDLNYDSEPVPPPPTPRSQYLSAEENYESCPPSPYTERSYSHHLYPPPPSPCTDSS

B1: MOR08545 Fab (Fab, V domains shown)
VH: QVQLVESGGGLVQPGGSLRLSCAASGFTFSVNGMHWVRQAPGKGLEWVSVIDGMGHTYYADSVKGRFTISRDNSKNTLYLQMNSLRAEDTAVYYCARYDYIKYGAFDPWGQGTLVTVSS
VL: DIELTQPPSVSVAPGQTARISCSGDNIGSKYVHWYQQKPGQAPVLVIYGDSNRPSGIPERFSGSNSGNTATLTISGTQAEDEADYYCTRTSTPISGVFGGGTKLTVLG
EC50 [1]: 0.3 nM

B2: MOR06475 Fab (Fab, V domains shown)
VH: QVQLKESGPALVKPTQTLTLTCTFSGFSLSNRGGGVGWIRQPPGKALEWLAWIDWDDDKSYSTSLKTRLTISKDTSKNQVVLTMTNMDPVDTATYYCARMHLPLVFDSWGQGTLVTVSS
VL: DIVLTQSPATLSLSPGERATLSCRASQFIGSRYLAWYQQKPGQAPRLLIYGASNRATGVPARFSGSGSGTDFTLTISSLEPEDFATYYCQQYYDYPQTFGQGTKVEIK
EC50 [1]: 0.22 nM

B3: scFv08168-D7 (scFv, part only; not given: Linker and His tag, V domains shown, not shown: another chain or arm of the molecule; small tags and cut ends)
VH: QVQLVESGGGLVQPGGSLRLSCAASGFTFSDYVMNWVRQAPGKGLEWVSGISWSGVNTHYADSVKGRFTISRDNSKNTLYLQMNSLRAEDTAVYYCARLGATANNIRYKFMDVWGQGTLVTVSS
VL: DIELTQPPSVSVAPGQTARITCSGDSLRNKVYWYQQKPGQAPVLVIYKNNRPSGIPERFSGSNSGNTATLTISGTQAEDEADYYCQSYDGQKSLVFGGGTKLTVL
IC50 by STF assay for Wnt1 inhibition [2]: 4.81 nM

B4: MOR08168 Fab (Fab, V domains shown)
VH: B3 VH with M34I
VL: B3 VL with T21S
EC50 [1]: 0.88 nM

B7: MOR06706 Fab (Fab, V domains shown)
VH: QVQLVESGGGLVQPGGSLRLSCAASGFTFSDYAIHWVRQAPGKGLEWVSGISYSGSSTHYADSVKGRFTISRDNSKNTLYLQMNSLRAEDTAVYYCARGSHGNIMAKRYFDFWGQGTLVTVSS
VL: DIELTQPPSVSVAPGQTARISCSGDNIRKKYVYWYQQKPGQAPVLVIYEDSKRPSGIPERFSGSNSGNTATLTISGTQAEDEADYYCSTADSGINNGVFGGGTKLTVL
EC50 [1]: 0.46 nM

The remaining lines, values ahead:

IC50 by STF assay for Wnt1 inhibition [2]: 11.1 nM
B5: scFv08168-D9 (scFv, part only; not given: Linker and His tag, V domains shown, not shown: another chain or arm of the molecule; small tags and cut ends)
VH: B3 VH
VL: B3 VL with T21S, G61V

IC50 by STF assay for Wnt1 inhibition [2]: 0.74 nM
B6: scFv08168-D6 (scFv, part only; not given: Linker and His tag, V domains shown, not shown: another chain or arm of the molecule; small tags and cut ends)
VH: B3 VH with V48I
VL: B3 VL with T21S
